# Tested on: Escherichia coli TOP10
# Test: shrunken log2 fold change of peptide-encoding DNA abundance (4.5 h post-induction vs induction); higher = less antimicrobial activity (less host growth inhibition)
# Details: time post-induction: 4.5 h; library: site-saturation at positions 5, 18, 19, 20
# 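Note: peptides expressed intracellularly from a pBAD plasmid library in pooled LB shake-flask culture, induced with 0.3% L-arabinose, DNA abundance read by NGS, three biological replicates, DESeq2 with apeglm shrinkage.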
row,Sequence,shrunken log2 fold change
1,RRIRFRPPRLPRPRPRPSLEPRP,-0.0776
2,RRIRRRPPRLPRPRPRPYGSPRP,-0.00192
3,RRIRPRPPRLPRPRPRPDDNPRP,-0.0275
4,RRIRHRPPRLPRPRPRPVWDPRP,-0.0821
5,RRIRSRPPRLPRPRPRPYGGPRP,-0.608
6,RRIRVRPPRLPRPRPRPPYKPRP,-0.371
7,RRIRNRPPRLPRPRPRPNQGPRP,-0.338
8,RRIRWRPPRLPRPRPRPVPTPRP,0.544
9,RRIRQRPPRLPRPRPRPCPGPRP,-0.0035
10,RRIRPRPPRLPRPRPRPMHFPRP,0.015
11,RRIRWRPPRLPRPRPRPMKLPRP,-0.198
12,RRIRVRPPRLPRPRPRPRLCPRP,0.564
13,RRIRERPPRLPRPRPRPQDCPRP,0.015
14,RRIRIRPPRLPRPRPRPRSQPRP,0.085
15,RRIRFRPPRLPRPRPRPWDFPRP,-0.0975
16,RRIRDRPPRLPRPRPRPMKFPRP,-0.00192
17,RRIRIRPPRLPRPRPRPFVCPRP,-0.797
18,RRIRGRPPRLPRPRPRPNQRPRP,0.27
19,RRIRQRPPRLPRPRPRPENFPRP,-0.00776
20,RRIRNRPPRLPRPRPRPIIFPRP,-1.03
21,RRIRIRPPRLPRPRPRPVKPPRP,0.0254
22,RRIRKRPPRLPRPRPRPWGDPRP,0.499
23,RRIRLRPPRLPRPRPRPIHCPRP,-0.0842
24,RRIRPRPPRLPRPRPRPQKRPRP,0.151
25,RRIRYRPPRLPRPRPRPMKAPRP,-0.000687

row,Sequence,shrunken log2 fold change
1,RRIRLRPPRLPRPRPRPADCPRP,0.142
2,RRIRWRPPRLPRPRPRPYWEPRP,-0.0146
3,RRIRNRPPRLPRPRPRPAFRPRP,0.0513
4,RRIRLRPPRLPRPRPRPPKFPRP,0.028
5,RRIRLRPPRLPRPRPRPLWRPRP,0.785
6,RRIRVRPPRLPRPRPRPIRGPRP,0.0551
7,RRIRQRPPRLPRPRPRPQSLPRP,-0.0818
8,RRIRVRPPRLPRPRPRPAADPRP,0.437
9,RRIRCRPPRLPRPRPRPCKLPRP,-0.896
10,RRIRFRPPRLPRPRPRPVKPPRP,-0.0579
11,RRIRTRPPRLPRPRPRPETFPRP,-0.4
12,RRIRIRPPRLPRPRPRPLQEPRP,-0.0919
13,RRIRNRPPRLPRPRPRPKYTPRP,-0.63
14,RRIRNRPPRLPRPRPRPNYTPRP,-0.359
15,RRIRDRPPRLPRPRPRPLFTPRP,0.0222
16,RRIRPRPPRLPRPRPRPPAAPRP,0.54
17,RRIRKRPPRLPRPRPRPWHEPRP,-0.0363
18,RRIRSRPPRLPRPRPRPDARPRP,0.1
19,RRIRFRPPRLPRPRPRPRDHPRP,0.015
20,RRIRMRPPRLPRPRPRPISIPRP,-0.313
21,RRIRNRPPRLPRPRPRPEFWPRP,0.0698
22,RRIRQRPPRLPRPRPRPFDAPRP,-0.0632
23,RRIRGRPPRLPRPRPRPGQKPRP,0.494
24,RRIRQRPPRLPRPRPRPCGIPRP,-0.115
25,RRIRNRPPRLPRPRPRPLGHPRP,-0.262

row,Sequence,shrunken log2 fold change
1,RRIRNRPPRLPRPRPRPSRAPRP,0.121
2,RRIRTRPPRLPRPRPRPFFIPRP,-0.518
3,RRIRSRPPRLPRPRPRPGFPPRP,-0.00277
4,RRIRQRPPRLPRPRPRPARQPRP,0.182
5,RRIRTRPPRLPRPRPRPHPAPRP,0.201
6,RRIRGRPPRLPRPRPRPDISPRP,-0.0115
7,RRIRMRPPRLPRPRPRPGAWPRP,0.122
8,RRIRDRPPRLPRPRPRPFTPPRP,-0.38
9,RRIRVRPPRLPRPRPRPYCHPRP,-0.0116
10,RRIRIRPPRLPRPRPRPIQYPRP,-0.251
11,RRIRYRPPRLPRPRPRPYYSPRP,0.0106
12,RRIRIRPPRLPRPRPRPTLDPRP,1.36
13,RRIRARPPRLPRPRPRPDWEPRP,0.334
14,RRIRTRPPRLPRPRPRPKMYPRP,-0.52
15,RRIRMRPPRLPRPRPRPRLIPRP,0.0709
16,RRIRDRPPRLPRPRPRPQDMPRP,-0.628
17,RRIRNRPPRLPRPRPRPVIYPRP,-0.301
18,RRIRVRPPRLPRPRPRPVPRPRP,-0.00795
19,RRIRMRPPRLPRPRPRPIGAPRP,0.739
20,RRIRDRPPRLPRPRPRPWMQPRP,-0.0999
21,RRIRLRPPRLPRPRPRPPKPPRP,0.555
22,RRIRKRPPRLPRPRPRPKCDPRP,0.405
23,RRIRGRPPRLPRPRPRPPSGPRP,0.766
24,RRIRVRPPRLPRPRPRPSDTPRP,-0.54
25,RRIRDRPPRLPRPRPRPCWPPRP,0.073

row,Sequence,shrunken log2 fold change
1,RRIRKRPPRLPRPRPRPASNPRP,0.147
2,RRIRMRPPRLPRPRPRPQEGPRP,0.0197
3,RRIRQRPPRLPRPRPRPLHTPRP,0.0932
4,RRIRCRPPRLPRPRPRPYNTPRP,-0.91
5,RRIRWRPPRLPRPRPRPSAGPRP,0.231
6,RRIRSRPPRLPRPRPRPLIDPRP,-0.197
7,RRIRKRPPRLPRPRPRPTGRPRP,0.609
8,RRIRPRPPRLPRPRPRPEFHPRP,-0.0272
9,RRIRSRPPRLPRPRPRPDPTPRP,0.035
10,RRIRDRPPRLPRPRPRPFFMPRP,0.033
11,RRIRQRPPRLPRPRPRPFGAPRP,-0.0476
12,RRIRSRPPRLPRPRPRPMYIPRP,-0.354
13,RRIRNRPPRLPRPRPRPQDMPRP,0.0124
14,RRIRVRPPRLPRPRPRPPDLPRP,0.195
15,RRIRARPPRLPRPRPRPQQHPRP,0.284
16,RRIRHRPPRLPRPRPRPAGHPRP,-0.0991
17,RRIRVRPPRLPRPRPRPDSNPRP,-0.159
18,RRIRIRPPRLPRPRPRPDNNPRP,-0.376
19,RRIRPRPPRLPRPRPRPMNKPRP,-0.551
20,RRIRLRPPRLPRPRPRPPIKPRP,-0.179
21,RRIRLRPPRLPRPRPRPMQQPRP,0.0192
22,RRIRMRPPRLPRPRPRPFKKPRP,0.0258
23,RRIRHRPPRLPRPRPRPSYWPRP,0.0148
24,RRIRKRPPRLPRPRPRPTLAPRP,1.19
25,RRIRCRPPRLPRPRPRPPQQPRP,0.549

row,Sequence,shrunken log2 fold change
1,RRIRWRPPRLPRPRPRPWRDPRP,0.433
2,RRIRRRPPRLPRPRPRPLGYPRP,0.26
3,RRIRARPPRLPRPRPRPQMIPRP,0.181
4,RRIRCRPPRLPRPRPRPKNRPRP,-0.118
5,RRIRGRPPRLPRPRPRPSLSPRP,0.576
6,RRIRLRPPRLPRPRPRPPYVPRP,-0.0415
7,RRIRMRPPRLPRPRPRPAPFPRP,0.575
8,RRIRERPPRLPRPRPRPKSGPRP,-0.136
9,RRIRERPPRLPRPRPRPQLPPRP,0.021
10,RRIRIRPPRLPRPRPRPDNKPRP,-0.703
11,RRIRDRPPRLPRPRPRPITCPRP,-0.403
12,RRIRYRPPRLPRPRPRPVNKPRP,-0.0557
13,RRIRDRPPRLPRPRPRPWGFPRP,0.13
14,RRIRWRPPRLPRPRPRPVLLPRP,0.0146
15,RRIRIRPPRLPRPRPRPWNTPRP,-0.256
16,RRIRTRPPRLPRPRPRPRMKPRP,0.0156
17,RRIRTRPPRLPRPRPRPRPEPRP,0.238
18,RRIRWRPPRLPRPRPRPHQGPRP,0.0993
19,RRIRGRPPRLPRPRPRPDEQPRP,-0.0342
20,RRIRFRPPRLPRPRPRPKDDPRP,-0.052
21,RRIRHRPPRLPRPRPRPKCPPRP,-0.0954
22,RRIRWRPPRLPRPRPRPGDDPRP,0.351
23,RRIRTRPPRLPRPRPRPYANPRP,-0.00264
24,RRIRFRPPRLPRPRPRPNACPRP,-0.18
25,RRIRNRPPRLPRPRPRPVTKPRP,0.0334
